The source of these data is patent US20100113291A1 (CENTRE NATIONAL DE LA RECHERCHE SCIENTIFIQUE, priority 2006, published 2010).

The experiment is classed as biochemical. The note with it: acetoacetyl-CoA and NADPH both at 100 μM.

B1: MabA-wt: wild-type protein MabA of Mycobacterium tuberculosis, SEQ ID NO: 1 (protein, listed as Mycobacterium tuberculosis)
chain: MTATATEGAKPPFVSRSVLVTGGNRGIGLAIAQRLAADGHKVAVTHRGSGAPKGLFGVECDVTDSDAVDRAFTAVEEHQGPVEVLVSNAGLSADAFLMRMTEEKFEKVINANLTGAFRVAQRASRSMQRNKFGRMIFIGSVSGSWGIGNQANYAASKAGVIGMARSIARELSKANVTANVVAPGYIDTDMTRALDERIQQGALQFIPAKRVGTPAEVAGVVSFLASEDASYISGAVIPVDGGMGMGH
With B1, the Vi came out at 0.60 ± 0.01 µmol/min/mg.
